Test results published in publication PMC10397247.

Experiments:
Assay in all cases: two-hybrid library CCNG1;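 also: natural log of median RNA to DNA barcode read ratio; higher means stronger binding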
P1A = target: T1, P1A
T1 chain: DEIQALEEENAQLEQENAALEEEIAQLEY

P2A = target: T2, P2A
T2 chain: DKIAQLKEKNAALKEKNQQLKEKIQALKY

P3A = target: T3, P3A
T3 chain: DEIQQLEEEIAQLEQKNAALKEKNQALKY

P4A = target: T4, P4A
T4 chain: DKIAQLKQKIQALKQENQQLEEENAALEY

P5A = target: T5, P5A
T5 chain: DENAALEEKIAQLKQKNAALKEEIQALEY

P6A = target: T6, P6A
T6 chain: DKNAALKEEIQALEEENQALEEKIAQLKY

P7A = target: T7, P7A
T7 chain: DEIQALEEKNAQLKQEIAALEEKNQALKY

P8A = target: T8, P8A
T8 chain: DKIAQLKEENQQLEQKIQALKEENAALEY

P9A = target: T9, P9A
T9 chain: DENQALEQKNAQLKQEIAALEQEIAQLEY

4H2162-bN = target: T10, 4H2162-bN
T10 chain: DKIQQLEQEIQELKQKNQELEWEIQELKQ

4H2233-bN = target: T11, 4H2233-bN
T11 chain: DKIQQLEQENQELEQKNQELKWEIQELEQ

4H2253-bN = target: T12, 4H2253-bN
T12 chain: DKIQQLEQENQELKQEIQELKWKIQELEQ

4H235-bN = target: T13, 4H235-bN
T13 chain: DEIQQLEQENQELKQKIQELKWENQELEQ

4H2444-bA = target: T14, 4H2444-bA
T14 chain: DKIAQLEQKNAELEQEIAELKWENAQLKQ

4H2444-bN = target: T15, 4H2444-bN
T15 chain: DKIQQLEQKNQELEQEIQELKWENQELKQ

4H2518-bN = target: T16, 4H2518-bN
T16 chain: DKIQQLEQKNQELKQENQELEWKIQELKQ

4H2585-bN = target: T17, 4H2585-bN
T17 chain: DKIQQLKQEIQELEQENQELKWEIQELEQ

4H264-bN = target: T18, 4H264-bN
T18 chain: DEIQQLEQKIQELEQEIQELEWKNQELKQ

4H2760-bN = target: T19, 4H2760-bN
T19 chain: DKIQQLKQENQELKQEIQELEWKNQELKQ

4H2859-bN = target: T20, 4H2859-bN
T20 chain: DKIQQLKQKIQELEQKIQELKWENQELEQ

4H2931-bN = target: T21, 4H2931-bN
T21 chain: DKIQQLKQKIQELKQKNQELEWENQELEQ

4H3041-bN = target: T22, 4H3041-bN
T22 chain: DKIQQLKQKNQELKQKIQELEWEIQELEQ

4H3297-bN = target: T23, 4H3297-bN
T23 chain: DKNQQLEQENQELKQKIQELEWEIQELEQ

4H3364-bN = target: T24, 4H3364-bN
T24 chain: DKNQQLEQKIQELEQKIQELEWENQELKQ

4H3381-bN = target: T25, 4H3381-bN
T25 chain: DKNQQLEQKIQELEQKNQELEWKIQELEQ

4H349-bN = target: T26, 4H349-bN
T26 chain: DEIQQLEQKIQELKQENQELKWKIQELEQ

4H56-bN = target: T27, 4H56-bN
T27 chain: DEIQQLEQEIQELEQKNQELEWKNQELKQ

4H730-bN = target: T28, 4H730-bN
T28 chain: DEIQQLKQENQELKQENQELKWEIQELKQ

4H796-bN = target: T29, 4H796-bN
T29 chain: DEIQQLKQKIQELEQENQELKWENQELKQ

4H932-bN = target: T30, 4H932-bN
T30 chain: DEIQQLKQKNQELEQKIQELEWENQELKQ

4H949-bN = target: T31, 4H949-bN
T31 chain: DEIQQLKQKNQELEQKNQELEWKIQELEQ

4H2143-bN = target: T32, 4H2143-bN
T32 chain: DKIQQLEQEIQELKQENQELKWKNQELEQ

4H2223-bN = target: T33, 4H2223-bN
T33 chain: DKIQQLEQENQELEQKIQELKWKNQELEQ

4H2438-bN = target: T34, 4H2438-bN
T34 chain: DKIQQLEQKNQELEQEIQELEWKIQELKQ

4H2473-bN = target: T35, 4H2473-bN
T35 chain: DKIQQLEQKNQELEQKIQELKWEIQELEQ

4H2503-bN = target: T36, 4H2503-bN
T36 chain: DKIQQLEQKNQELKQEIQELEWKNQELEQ

4H2588-bN = target: T37, 4H2588-bN
T37 chain: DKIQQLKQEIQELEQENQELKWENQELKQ

4H2692-bN = target: T38, 4H2692-bN
T38 chain: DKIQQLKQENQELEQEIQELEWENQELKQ

4H2717-bN = target: T39, 4H2717-bN
T39 chain: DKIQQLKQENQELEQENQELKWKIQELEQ

4H2839-bN = target: T40, 4H2839-bN
T40 chain: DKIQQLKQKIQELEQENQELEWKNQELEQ

4H2915-bN = target: T41, 4H2915-bN
T41 chain: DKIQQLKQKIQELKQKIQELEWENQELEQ

4H3057-bN = target: T42, 4H3057-bN
T42 chain: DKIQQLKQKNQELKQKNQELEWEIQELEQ

4H319-bN = target: T43, 4H319-bN
T43 chain: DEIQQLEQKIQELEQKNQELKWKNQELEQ

4H3277-bN = target: T44, 4H3277-bN
T44 chain: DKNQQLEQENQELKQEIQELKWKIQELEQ

4H3354-bN = target: T45, 4H3354-bN
T45 chain: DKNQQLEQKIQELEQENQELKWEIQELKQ

4H348-bN = target: T46, 4H348-bN
T46 chain: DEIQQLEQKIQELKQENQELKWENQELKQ

4H40-bN = target: T47, 4H40-bN
T47 chain: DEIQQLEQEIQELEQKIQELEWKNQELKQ

4H477-bN = target: T48, 4H477-bN
T48 chain: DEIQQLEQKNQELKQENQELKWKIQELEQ

4H492-bN = target: T49, 4H492-bN
T49 chain: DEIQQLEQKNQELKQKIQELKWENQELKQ

4H570-bN = target: T50, 4H570-bN
T50 chain: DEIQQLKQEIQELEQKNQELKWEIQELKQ

4H741-bN = target: T51, 4H741-bN
T51 chain: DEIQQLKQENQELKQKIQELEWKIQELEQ

4H754-bA = target: T52, 4H754-bA
T52 chain: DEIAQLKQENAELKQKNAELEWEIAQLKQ

O11-bN = target: T53, O11-bN
T53 chain: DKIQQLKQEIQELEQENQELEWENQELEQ

O12-bA = target: T54, O12-bA
T54 chain: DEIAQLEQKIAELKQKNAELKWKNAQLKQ

O13-bA = target: T55, O13-bA
T55 chain: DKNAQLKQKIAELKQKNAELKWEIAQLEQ

O14-bA = target: T56, O14-bA
T56 chain: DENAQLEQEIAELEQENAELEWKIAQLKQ

O15-bA = target: T57, O15-bA
T57 chain: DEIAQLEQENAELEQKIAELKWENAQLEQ

O16-bA = target: T58, O16-bA
T58 chain: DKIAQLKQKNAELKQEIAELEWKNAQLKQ

O2-bA = target: T59, O2-bA
T59 chain: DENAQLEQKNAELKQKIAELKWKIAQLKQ

O3-bA = target: T60, O3-bA
T60 chain: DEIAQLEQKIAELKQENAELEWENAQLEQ

O4-bA = target: T61, O4-bA
T61 chain: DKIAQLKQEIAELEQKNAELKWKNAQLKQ

O5-bA = target: T62, O5-bA
T62 chain: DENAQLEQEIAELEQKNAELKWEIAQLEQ

O6-bA = target: T63, O6-bA
T63 chain: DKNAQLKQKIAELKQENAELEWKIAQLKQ

O7-bA = target: T64, O7-bA
T64 chain: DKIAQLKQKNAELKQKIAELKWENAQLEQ

O8-bA = target: T65, O8-bA
T65 chain: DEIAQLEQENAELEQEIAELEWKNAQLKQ

O9-bA = target: T66, O9-bA
T66 chain: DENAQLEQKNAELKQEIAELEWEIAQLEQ

O11-bA = target: T67, O11-bA
T67 chain: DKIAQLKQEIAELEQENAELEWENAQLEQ

Binder: DEIQALEEENAQLEQENAALEEEIAQLEY [P1A]
- interaction score (P1A): -1.11
- interaction score (P2A): 2.6
- interaction score (P3A): -1.69
- interaction score (P4A): -0.87
- interaction score (P5A): -2.1
- interaction score (P6A): -1.54
- interaction score (P7A): -1.31
- interaction score (P8A): -1
- interaction score (P9A): -1.68

Binder: DKIQQLEQEIQELKQKNQELEWEIQELKQ [4H2162-bN]
- interaction score (4H2162-bN): 1.61
- interaction score (4H2233-bN): -0.887
- interaction score (4H2253-bN): -0.654
- interaction score (4H235-bN): -0.0614
- interaction score (4H2444-bA): -0.359
- interaction score (4H2444-bN): -1.27
- interaction score (4H2518-bN): 0.614
- interaction score (4H2585-bN): 0.615
- interaction score (4H264-bN): -0.799
- interaction score (4H2760-bN): -0.495
- interaction score (4H2859-bN): 0.571
- interaction score (4H2931-bN): -1.12
- interaction score (4H3041-bN): 1.18
- interaction score (4H3297-bN): -0.173
- interaction score (4H3364-bN): -0.416
- interaction score (4H3381-bN): -0.622
- interaction score (4H349-bN): 0.391
- interaction score (4H56-bN): -0.33
- interaction score (4H730-bN): -0.649
- interaction score (4H796-bN): -0.418
- interaction score (4H932-bN): -0.305
- interaction score (4H949-bN): -1.05

Binder: DKIQQLEQEIQELKQENQELKWKNQELEQ [4H2143-bN]
- interaction score (4H2143-bN): 0.45
- interaction score (4H2162-bN): 0.354
- interaction score (4H2223-bN): -0.138
- interaction score (4H2233-bN): -1.37
- interaction score (4H2253-bN): 0.598
- interaction score (4H235-bN): 0.188
- interaction score (4H2438-bN): 0.267
- interaction score (4H2444-bN): -1.29
- interaction score (4H2473-bN): -0.596
- interaction score (4H2503-bN): -0.374
- interaction score (4H2518-bN): -0.0822
- interaction score (4H2585-bN): -1.01
- interaction score (4H2588-bN): -0.413
- interaction score (4H264-bN): -0.0625
- interaction score (4H2692-bN): -0.295
- interaction score (4H2717-bN): 0.125
- interaction score (4H2760-bN): -0.843
- interaction score (4H2839-bN): -0.0339
- interaction score (4H2859-bN): -0.319
- interaction score (4H2915-bN): 0.491
- interaction score (4H2931-bN): -0.53
- interaction score (4H3041-bN): 0.217
- interaction score (4H3057-bN): -0.303
- interaction score (4H319-bN): -1.38
- interaction score (4H3277-bN): -0.382
- interaction score (4H3297-bN): -0.664
- interaction score (4H3354-bN): -2.78
- interaction score (4H3364-bN): -0.973
- interaction score (4H3381-bN): -0.161
- interaction score (4H348-bN): 0.129
- interaction score (4H349-bN): 0.196
- interaction score (4H40-bN): 0.442
- interaction score (4H477-bN): -0.266
- interaction score (4H492-bN): -0.438
- interaction score (4H56-bN): -0.695
- interaction score (4H570-bN): -0.424
- interaction score (4H730-bN): 0.137
- interaction score (4H741-bN): -0.465
- interaction score (4H754-bA): 0.173
- interaction score (4H796-bN): -0.462
- interaction score (4H932-bN): 0.299
- interaction score (4H949-bN): -0.46
- interaction score (O11-bN): -1.88

Binder: DEIAQLEQKIAELKQKNAELKWKNAQLKQ [O12-bA]
- interaction score (O12-bA): -1.51
- interaction score (O13-bA): -0.478
- interaction score (O14-bA): -0.435
- interaction score (O15-bA): -0.225
- interaction score (O16-bA): -0.73
- interaction score (O2-bA): -0.795
- interaction score (O3-bA): 1.31
- interaction score (O4-bA): 1.27
- interaction score (O5-bA): -0.511
- interaction score (O6-bA): 0.643
- interaction score (O7-bA): -0.372
- interaction score (O8-bA): 0.0711
- interaction score (O9-bA): 1.04

Binder: DKIAQLKQEIAELEQENAELEWENAQLEQ [O11-bA]
- interaction score (O11-bA): -0.526
- interaction score (O12-bA): 2.25
- interaction score (O13-bA): -1.12
- interaction score (O14-bA): -0.951
- interaction score (O15-bA): -0.971
- interaction score (O16-bA): -0.988
- interaction score (O2-bA): -0.637
- interaction score (O3-bA): -0.525
- interaction score (O4-bA): 2.16
- interaction score (O5-bA): -0.78
- interaction score (O6-bA): -0.9
- interaction score (O7-bA): -0.686
- interaction score (O8-bA): -1.31
- interaction score (O9-bA): -0.659
